Source: paper PMC11946523 (Toxins, 2025)

Tests used:
[1] = target: recombinant C-terminal domain of the BoNT/A heavy chain (heavy chain receptor domain, HCR) (Clostridium botulinum serotype A, …, UniProt P0DPI1); assay: SPR; Biacore; […] (50 ug/mL) […], in HBS-EP ([…]; 120 s flow, 600 s dissociation; […]; details: both partners purified
[2] = target: Botulinum neurotoxin serotype A (BoNT/A) holotoxin (Clostridium botulinum serotype A, …, UniProt P0DPI1); assay: as above; details: both partners purified

B1: HZ45 humanized monoclonal antibody (antibody, V domains shown)
VH: EVQLVQSGAEVKKPGASVKVSCKASGYTFTDYYINWVRQATGQGLEWLGESYPGSGTAFYNEKFKGKATLTADKSKNTAYMELSSLRSEDTAVYFCARSDGSPFAYWGQGTLVTVSS
VL: DIQMTQSPSSLSASVGDRVTITCKASDYINNWLAWYQQKPGKAPKLLISGAISLETGVPSRFSGSGSGTDYTLTISSLQPEDFATYYCQQYWSPPLTFGQGTKVEIK
notes: also called HZ45 mAb; HZ45 antibody; source: CHO-K1, transfected, purified from culture medium (ammonium sulfate, HIC-Phenyl)
B1 gave a Kd [1] of 0.0423 nM and a Kd [2] of 0.551 nM.
